The target in series [1] is T1, BbCmr1 (Beauveria bassiana, UniProt J4VZG7 1-764).
T1 sequence: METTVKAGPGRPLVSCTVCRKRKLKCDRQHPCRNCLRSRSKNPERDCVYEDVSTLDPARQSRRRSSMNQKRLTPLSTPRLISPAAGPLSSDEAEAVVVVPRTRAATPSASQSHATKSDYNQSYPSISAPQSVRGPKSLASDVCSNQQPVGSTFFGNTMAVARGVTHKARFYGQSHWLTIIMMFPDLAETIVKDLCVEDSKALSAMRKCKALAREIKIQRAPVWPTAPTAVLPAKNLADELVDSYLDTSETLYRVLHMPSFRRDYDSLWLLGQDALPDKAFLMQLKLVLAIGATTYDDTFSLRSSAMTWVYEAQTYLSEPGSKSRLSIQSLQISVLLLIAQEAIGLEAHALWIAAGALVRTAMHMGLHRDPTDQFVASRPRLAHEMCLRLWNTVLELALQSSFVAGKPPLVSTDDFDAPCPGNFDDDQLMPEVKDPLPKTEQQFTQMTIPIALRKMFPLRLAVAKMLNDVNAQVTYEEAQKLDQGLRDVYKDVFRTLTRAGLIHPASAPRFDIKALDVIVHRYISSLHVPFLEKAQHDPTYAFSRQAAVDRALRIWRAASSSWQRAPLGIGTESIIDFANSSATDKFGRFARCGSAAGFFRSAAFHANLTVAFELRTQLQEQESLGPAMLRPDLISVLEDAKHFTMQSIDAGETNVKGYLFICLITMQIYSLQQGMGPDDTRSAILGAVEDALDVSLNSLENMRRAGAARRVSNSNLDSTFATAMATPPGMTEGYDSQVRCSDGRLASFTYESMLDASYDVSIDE
Description: EMSA; 0.5-2 ug protein, 10 ng probe; concentration-dependent; complex decreased by 200-800-fold unlabeled probe; LightShift Chemiluminescent EMSA kit, manufacturer's instructions; buffer, salt, pH and temperature not given. The note with it: protein: recombinant; tags: N-terminal GST (pGEX-6p); chain copies: 2; label: biotin; blunt. Background: A gel shift assay detects complexes by their altered migration in electrophoresis.

The target in series [2] is T2, BbBrlA (Beauveria bassiana, UniProt J5JC27 1-370).
T2 sequence: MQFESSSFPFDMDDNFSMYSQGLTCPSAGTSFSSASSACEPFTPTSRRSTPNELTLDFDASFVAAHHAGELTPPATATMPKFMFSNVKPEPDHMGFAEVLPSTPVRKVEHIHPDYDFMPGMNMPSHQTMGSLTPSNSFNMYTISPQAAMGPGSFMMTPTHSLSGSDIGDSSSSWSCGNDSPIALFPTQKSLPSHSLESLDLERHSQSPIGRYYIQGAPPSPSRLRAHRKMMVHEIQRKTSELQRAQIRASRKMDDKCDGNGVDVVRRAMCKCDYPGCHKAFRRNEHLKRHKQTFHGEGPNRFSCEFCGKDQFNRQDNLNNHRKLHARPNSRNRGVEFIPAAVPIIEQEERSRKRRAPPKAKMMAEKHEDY
Description: EMSA; shift lost with 200-fold unlabeled probe; LightShift Chemiluminescent EMSA kit, manufacturer's instructions; buffer, salt, pH and temperature not given. The note with it: protein: recombinant; tags: GST; label: biotin; blunt.

This is an account of results in article PMC8826823, “The Zinc Finger Transcription Factor BbCmr1 Regulates Conidium Maturation in Beauveria bassiana”.

B1: BbbrlA promoter probe (brlA-EMSA) (dsDNA)
DNA 1: GGAAAAAAAAAAAAGAAAAGGAACCCACAACTCAAGTCT
DNA 2: AGACTTGAGTTGTGGGTTCCTTTTCTTTTTTTTTTTTCC
With B1, the binding result in series [1] is “binds”.

B2: Bbcmr1 promoter probe (cmr1-EMSA) (dsDNA)
DNA 1: CGGAATTACGATATTACCCCTAGAGACAATTTTTATTATA
DNA 2: TATAATAAAAATTGTCTCTAGGGGTAATATCGTAATTCCG
With B2, the binding result in series [2] is on record as “binds”.
